Test results published in paper PMC12416549 (2024).
Numbering of substitutions follows the chain as printed. Numbers in names are those of the source.

Experiments:
[1] = target: OX40_mb1; assay: SPR
[2] = target: T1, TNFR2 (UniProt P20333 23-212); assay: SPR
T1 chain: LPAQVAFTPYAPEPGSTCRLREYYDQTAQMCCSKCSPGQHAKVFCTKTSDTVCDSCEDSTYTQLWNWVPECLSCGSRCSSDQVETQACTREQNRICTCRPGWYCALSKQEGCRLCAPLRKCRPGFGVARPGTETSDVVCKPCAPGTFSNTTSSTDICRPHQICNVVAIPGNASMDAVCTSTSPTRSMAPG

[3] = target: TNFR1_mb2; assay: SPR
[4] = target: TNFR1_mb1; assay: SPR
[5] = target: T2, TNFR1 (Homo sapiens, UniProt P19438); assay: yeast display SC50
T2 chain: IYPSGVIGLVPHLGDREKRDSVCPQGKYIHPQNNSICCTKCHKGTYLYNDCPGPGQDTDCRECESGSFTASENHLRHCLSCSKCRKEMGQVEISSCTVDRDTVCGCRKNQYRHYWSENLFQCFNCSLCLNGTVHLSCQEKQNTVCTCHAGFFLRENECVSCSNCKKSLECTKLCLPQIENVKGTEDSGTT

B1: OX40 (protein)
chain: LHCVGDTYPSNDRCCHECRPGNGMVSRCSRSQNTVCRPCGPGFYNDVVSSKPCKPCTWCNLRSGSERKQLCTATQDTVCRCRAGTQPLDSYKPGVDCAPCPPGHFSPGDNQACKPWTNCTLAGKHTLQPASNSSDAICEDRDPPATQPQETQGPPARPITVQPTEAWPRTSQGPSTRPVEVPGGRA
Kd [1]: 30 nM
koff [1]: 0.033 s⁻¹

B2: TNFR2_mb1 (designed binder)
chain: LNPEQVAKIGAAIDAGRKYLDAKIEEAKKTLTLRTAQALLVIRSQYERAVDTLFTDPSAAEKELAATLATIDRLLKEHPELAAEIKAFIRSTMAEIRALLAASLAA
koff [2]: 0.00277 s⁻¹

B3: TNFR1 (protein)
chain: LVPHLGDREKRDSVCPQGKYIHPQNNSICCTKCHKGTYLYNDCPGPGQDTDCRECESGSFTASENHLRHCLSCSKCRKEMGQVEISSCTVDRDTVCGCRKNQYRHYWSENLFQCFNCSLCLNGTVHLSCQEKQNTVCTCHAGFFLRENECVSCSNCKKSLECTKLCLPQIENVKGTEDSGTT
Kd [3]: 24.5 nM
koff [3]: 0.0773 s⁻¹
Kd [4]: 29 nM
koff [4]: 0.134 s⁻¹

B4: S47I (designed binder)
chain: MTLQELLREEALRRAEAEAFRYALELLAEKFPEQKEYLLDLAEEIEIQIRSLSGVDVEDVRKFLDKEWAWVKELLAEHPAELAEVEAARAARLAELRAEVEAKVAA
apparent Kd (screen) [5]: 0.956 nM

B5: E43I (designed binder)
chain: B4 chain with E43I, I47S
apparent Kd (screen) [5]: 0.539 nM

B6: Y37R (designed binder)
chain: B4 chain with Y37R, I47S
apparent Kd (screen) [5]: 4.83 nM

B7: R14S (designed binder)
chain: B4 chain with R14S, I47S
apparent Kd (screen) [5]: 0.49 nM

B8: V71Q (designed binder)
chain: B4 chain with I47S, V71Q
apparent Kd (screen) [5]: 0.869 nM

B9: E16N (designed binder)
chain: B4 chain with E16N, I47S
apparent Kd (screen) [5]: 0.446 nM

B10: E99K (designed binder)
chain: B4 chain with I47S, E99K
apparent Kd (screen) [5]: 0.539 nM

B11: A19M (designed binder)
chain: B4 chain with A19M, I47S
apparent Kd (screen) [5]: 0.539 nM

B12: Q48Y (designed binder)
chain: B4 chain with I47S, Q48Y
apparent Kd (screen) [5]: 11.4 nM

B13: A17R (designed binder)
chain: B4 chain with A17R, I47S
apparent Kd (screen) [5]: 0.539 nM

B14: S51M (designed binder)
chain: B4 chain with I47S, S51M
apparent Kd (screen) [5]: 0.718 nM

B15: D56C (designed binder)
chain: B4 chain with I47S, D56C
apparent Kd (screen) [5]: 0.956 nM

B16: E10I (designed binder)
chain: B4 chain with E10I, I47S
apparent Kd (screen) [5]: 1.16 nM

B17: L93T (designed binder)
chain: B4 chain with I47S, L93T
apparent Kd (screen) [5]: 0.653 nM

B18: L3P (designed binder)
chain: B4 chain with L3P, I47S
apparent Kd (screen) [5]: 2.73 nM

B19: P79Y (designed binder)
chain: B4 chain with I47S, P79Y
apparent Kd (screen) [5]: 0.869 nM

B20: A23M (designed binder)
chain: B4 chain with A23M, I47S
apparent Kd (screen) [5]: 0.539 nM

B21: R89K (designed binder)
chain: B4 chain with I47S, R89K
apparent Kd (screen) [5]: 0.539 nM

B22: K62V (designed binder)
chain: B4 chain with I47S, K62V
apparent Kd (screen) [5]: 0.49 nM

B23: R97A (designed binder)
chain: B4 chain with I47S, R97A
apparent Kd (screen) [5]: 0.718 nM

B24: R61G (designed binder)
chain: B4 chain with I47S, R61G
apparent Kd (screen) [5]: 2.25 nM

B25: E81Q (designed binder)
chain: B4 chain with I47S, E81Q
apparent Kd (screen) [5]: 0.49 nM

B26: F20C (designed binder)
chain: B4 chain with F20C, I47S
apparent Kd (screen) [5]: 1.69 nM

B27: L93H (designed binder)
chain: B4 chain with I47S, L93H
apparent Kd (screen) [5]: 0.446 nM

B28: R61Y (designed binder)
chain: B4 chain with I47S, R61Y
apparent Kd (screen) [5]: 10.4 nM

B29: T2N (designed binder)
chain: B4 chain with T2N, I47S
apparent Kd (screen) [5]: 0.956 nM

B30: E25N (designed binder)
chain: B4 chain with E25N, I47S
apparent Kd (screen) [5]: 0.869 nM

B31: L6Y (designed binder)
chain: B4 chain with L6Y, I47S
apparent Kd (screen) [5]: 5.31 nM

B32: V60N (designed binder)
chain: B4 chain with I47S, V60N
apparent Kd (screen) [5]: 0.956 nM

B33: D40P (designed binder)
chain: B4 chain with D40P, I47S
apparent Kd (screen) [5]: 9.41 nM

B34: S51L (designed binder)
chain: B4 chain with I47S, S51L
apparent Kd (screen) [5]: 0.653 nM

B35: E25V (designed binder)
chain: B4 chain with E25V, I47S
apparent Kd (screen) [5]: 0.593 nM

B36: L24Q (designed binder)
chain: B4 chain with L24Q, I47S
apparent Kd (screen) [5]: 0.79 nM

B37: L38W (designed binder)
chain: B4 chain with L38W, I47S
apparent Kd (screen) [5]: 0.49 nM

B38: K62Q (designed binder)
chain: B4 chain with I47S, K62Q
apparent Kd (screen) [5]: 0.539 nM
